Reference: patent US10851403B2, “Cyclin-dependent kinase substrate” (SYSMEX CORPORATION, priority 2017, dated 2020)
No end group written: not given here. *: point of attachment. Biotin = O=C1N[C@H]2[C@H](CS[C@H]2CCCCC(=O)*)N1; Ahx = NCCCCCC(=O)O

What was measured:
[1] = target: T1, CDK4/cyclin D3 (Homo sapiens, UniProt P11802); experiment: CDK reactivity test 3 (Test Example 3); assay type: biochemical; details: luminescence intensity when using CDK6 set as 100%, HRP-labeled anti-FITC antibody
T1 construct: purchased SignalChem
T1 sequence (P11802 whole entry): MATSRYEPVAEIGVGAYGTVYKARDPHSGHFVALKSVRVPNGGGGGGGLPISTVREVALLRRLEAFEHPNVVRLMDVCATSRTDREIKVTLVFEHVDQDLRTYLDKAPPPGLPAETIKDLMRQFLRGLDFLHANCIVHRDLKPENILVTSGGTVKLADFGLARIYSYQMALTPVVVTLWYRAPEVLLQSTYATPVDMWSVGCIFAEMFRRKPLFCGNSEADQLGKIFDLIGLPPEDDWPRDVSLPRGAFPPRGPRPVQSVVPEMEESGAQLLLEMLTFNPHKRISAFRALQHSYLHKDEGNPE
T1 sequence (P30281 whole entry partner): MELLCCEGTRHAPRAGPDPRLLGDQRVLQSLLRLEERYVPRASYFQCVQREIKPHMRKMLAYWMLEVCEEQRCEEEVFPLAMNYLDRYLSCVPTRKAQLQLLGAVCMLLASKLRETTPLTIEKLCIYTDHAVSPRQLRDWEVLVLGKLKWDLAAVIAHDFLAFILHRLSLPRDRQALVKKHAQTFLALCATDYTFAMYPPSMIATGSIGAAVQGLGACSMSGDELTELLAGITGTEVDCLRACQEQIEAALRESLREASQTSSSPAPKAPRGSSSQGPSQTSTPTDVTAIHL
Procedure: The reactivity of the polypeptides obtained in Production Example 3 to CDK1, CDK2, CDK4 and CDK6 was examined. Specifically, it was performed as follows.
In a well of a hydrophilic filter plate, 30 μL of a CDK solution (composition: 10 μg/mL CDK/cyclin complex, 1% BSA, triethanolamine buffer solution (pH 7.5)) containing CDK1/cyclin A2, CDK2/cyclin E1, CDK4/cyclin D3 or CDK6/cyclin D3 (all manufactured by SignalChem) and 30 μL of a kinase reaction solution (composition: 4 μg/mL substrate peptide, 50 mM HEPES-NaOH buffer solution (pH 7.4), 15 mM MgCl2, 2 mM ATP-γS) containing any of Comparative Polypeptides 2 to 4 as a substrate peptide were mixed, and the plate was incubated at 37° C. for 1 hour with stirring at 900 rpm using a constant temperature shaker. The reaction solution was recovered by centrifugation (4° C., 2000 rpm, 5 minutes), and 28.6 μL of the reaction solution was dispensed into each well of a PCR plate. […] Luminescence was detected with a luminescence plate reader, and the luminescence intensity was measured. For each polypeptide, the relative value of the luminescence intensity when using other CDKs, in the case where the luminescence intensity when using CDK6 was set as 100%, was calculated.

[2] = target: T2, CDK6/cyclin D3 (Homo sapiens, UniProt Q00534); experiment: CDK reactivity test 6 (Test Example 6), automated immunoassay system HISCL-800; assay type: biochemical; details: 0.01 to 10 μg/mL CDK1/A2, CDK2/E1, CDK4/D3 or CDK6/D3; ATP; anti-phospho-antibody; 42° C. 3 minutes
T2 construct: purchased SignalChem
T2 sequence (Q00534 whole entry): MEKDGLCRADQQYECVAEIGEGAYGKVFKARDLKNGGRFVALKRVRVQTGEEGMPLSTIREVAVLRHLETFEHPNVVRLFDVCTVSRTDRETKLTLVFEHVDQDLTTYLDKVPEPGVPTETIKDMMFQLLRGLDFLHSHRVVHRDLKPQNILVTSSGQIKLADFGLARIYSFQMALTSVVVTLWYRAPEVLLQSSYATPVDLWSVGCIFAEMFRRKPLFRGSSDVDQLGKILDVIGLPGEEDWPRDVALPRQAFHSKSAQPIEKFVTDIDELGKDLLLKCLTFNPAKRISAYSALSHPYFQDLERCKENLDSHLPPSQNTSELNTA
T2 sequence (P30281 whole entry partner): as the sequence (P30281 whole entry partner) above
Procedure: The reactivity of the polypeptide (Polypeptide 28) obtained in Production Example 5 to CDK1, CDK2, CDK4 and CDK6 was examined using an automated immunoassay system (manufactured by Sysmex Corporation, HISCL-800). Specifically, it was performed as follows.
In a well of a plate, 30 μL of a CDK solution (composition: 0.01 to 10 μg/mL CDK/cyclin complex, 1% BSA, triethanolamine buffer solution (pH 7.5)) containing CDK1/cyclin A2, CDK2/cyclin E1, CDK4/cyclin D3 or CDK6/cyclin D3 (all manufactured by SignalChem) and 30 μL of a kinase reaction solution (composition: 4 μg/mL substrate peptide, 50 mM HEPES-NaOH buffer solution (pH 7.4), 15 mM MgCl2, 16 mM ATP) containing Polypeptide 28 as a substrate peptide were mixed, and the plate was incubated at 42° C. for 3 minutes. 30 μL (containing 0.15 μg of magnetic St-Ab beads) of a HISCL HBsAg R2 reagent (manufactured by Sysmex Corporation) was added to the well, and the plate was incubated at 42° C. for 2 minutes. The beads in the well were precipitated using a magnet, and the supernatant was removed. Then, a HISCL washing solution (manufactured by Sysmex Corporation) was added, and the beads were washed by shaking several times. […] Luminescence was detected with a luminometer, and the luminescence intensity was measured.

Sequence	relative value of the luminescence intensity [1]	specific detection of CDK (luminescence intensity versus CDK concentration, FIG. 3) [2]
PYKISEGLPTPAKMAPRSRI (PYKISEGLPTPAKMAPRSRI-NH2; not fully specified (N-terminus)) [Comparative Polypeptide 4, Comparative Polypeptide 3 with the CDK4 phosphorylation site residue replaced with alanine; N-terminal biotin]	Not detected	–
GAPWSPDPWDDGGGG ({Biotin-Ahx}-GAPWSPDPWDDGGGG) [Polypeptide 28, acidic-residue mutant of Polypeptide 3, N-terminal biotin via aminohexane linker]	–	a substrate capable of specifically detecting CDK6
